In the test the target is Protein Serine Kinase H1 (PSKH1), recombinant full-length, wild type (human) (UniProt P11801).
Protein Serine Kinase H1 (PSKH1), recombinant full-length, wild type (human), sequence (P11801 whole entry): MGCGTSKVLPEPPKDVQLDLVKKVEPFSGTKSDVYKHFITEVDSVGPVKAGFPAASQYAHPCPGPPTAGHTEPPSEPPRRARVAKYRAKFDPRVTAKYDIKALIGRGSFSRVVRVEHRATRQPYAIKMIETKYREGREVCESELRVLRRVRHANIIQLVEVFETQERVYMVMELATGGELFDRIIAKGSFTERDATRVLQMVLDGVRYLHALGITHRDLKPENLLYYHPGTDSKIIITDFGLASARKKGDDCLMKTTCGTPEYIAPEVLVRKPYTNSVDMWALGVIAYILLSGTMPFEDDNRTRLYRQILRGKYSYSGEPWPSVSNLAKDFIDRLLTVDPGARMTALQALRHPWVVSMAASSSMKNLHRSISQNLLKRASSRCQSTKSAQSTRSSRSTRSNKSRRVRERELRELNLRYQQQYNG

As to “Calmodulin, recombinant (His6-Calmodulin) (from UniProt P0DP23 1-149) (natural protein)”, the half-maximal activation (EC50) of HA-tagged PSKH1 (10 ng) kinase activity, titration of CaM 0-1,000 nM, radiometric assay is 58.7 nM and the radiometric kinase assay (ADR1 peptide phosphorylation) of HA-tagged PSKH1 (10 ng) with Ca2+-CaM (1 uM) is 10 fold.

The values are drawn from PMC11873932.
